This test has as its target Staphylococcus aureus FrmB (Staphylococcus aureus Newman). The test is described as follows: SEC.

In general, stoichiometry N refers to a count of units in the complex or per binding partner. With Staphylococcus aureus FrmB (enzyme), the stoichiometry N was 2.
